The labels stand for the following.
T1: Human TROP2 Full length (human, UniProt P09758 31-323)
T1 sequence: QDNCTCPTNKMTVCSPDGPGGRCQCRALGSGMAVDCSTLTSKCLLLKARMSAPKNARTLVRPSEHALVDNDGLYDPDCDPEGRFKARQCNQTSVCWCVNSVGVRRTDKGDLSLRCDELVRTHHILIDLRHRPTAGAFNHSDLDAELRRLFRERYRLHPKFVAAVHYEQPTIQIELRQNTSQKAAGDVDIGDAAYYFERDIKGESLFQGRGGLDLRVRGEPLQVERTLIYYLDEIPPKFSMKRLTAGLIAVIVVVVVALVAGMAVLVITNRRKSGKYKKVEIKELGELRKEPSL

T2: Cyno TROP2 Full length (cynomolgus monkey, UniProt P09758 31-323 (human entry))
T2 chain: T1 sequence with M32V, S63N, I200V, M262V, T268S

T3: Human TROP2 ECD (31-274 AA), biotinylated (human, UniProt P09758 31-274, biotinylated (site not stated))
T3 construct: also called tumor-associated calcium signal transducer 2; Human TROP2-biotin
T3 sequence: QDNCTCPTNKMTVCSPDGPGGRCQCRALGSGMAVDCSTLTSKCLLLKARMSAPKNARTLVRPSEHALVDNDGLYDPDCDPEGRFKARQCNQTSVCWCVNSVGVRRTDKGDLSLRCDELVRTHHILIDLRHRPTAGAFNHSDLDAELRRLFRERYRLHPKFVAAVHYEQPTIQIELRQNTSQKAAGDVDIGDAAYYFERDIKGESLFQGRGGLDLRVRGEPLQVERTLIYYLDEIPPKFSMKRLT

T4: Peptide-65 (cysteine pairing not given here; also: biotinylated, site not given here)
T4 construct: mask peptide for the CD3 scFv
T4 peptide: QGCGTIADPEPHCW

T5: Peptide-66 (cysteine pairing not given here; also: biotinylated, site not given here)
T5 construct: mask peptide for the CD3 scFv
T5 peptide: GSQCLGPEWEVCPY

T6: Peptide-67 (cysteine pairing not given here; also: biotinylated, site not given here)
T6 construct: mask peptide for the CD3 scFv
T6 peptide: VYCGPEFDESVGCM

T7: Peptide-68 (cysteine pairing not given here; also: biotinylated, site not given here)
T7 construct: mask peptide for the CD3 scFv
T7 peptide: DWCWYSPDNDGLCD

T8: Peptide-71 (cysteine pairing not given here; also: biotinylated, site not given here)
T8 construct: mask peptide for the CD3 scFv
T8 peptide: VDCGPDGDESILCY

T9: Peptide-72 (cysteine pairing not given here; also: biotinylated, site not given here)
T9 construct: mask peptide for the CD3 scFv
T9 peptide: AYCGPEFDESVGCM

T10: Peptide-73 (cysteine pairing not given here; also: biotinylated, site not given here)
T10 construct: mask peptide for the CD3 scFv
T10 peptide: VYCGPEFDESVGCA

T11: Peptide-74 (cysteine pairing not given here; also: biotinylated, site not given here)
T11 construct: mask peptide for the CD3 scFv
T11 peptide: ASQCLGPEWEVCPY

T12: Peptide-75 (cysteine pairing not given here; also: biotinylated, site not given here)
T12 construct: mask peptide for the CD3 scFv
T12 peptide: GSACLGPEWEVCPY

T13: Peptide-69 (cysteine pairing not given here; also: biotinylated, site not given here)
T13 construct: mask peptide for the CD3 scFv
T13 peptide: SECLVDLQSDPCYW

B1: TCE-8 (bispecific antibody)
light: DIQLTQSPSSLSASVGDRVSITCKASQDVSIAVAWYQQKPGKAPKLLIYSASYRYTGVPDRFSGSGSGTDFTLTISSLQPEDFAVYYCQQHYITPLTFGAGTKVEIKRTVAAPSVFIFPPSDEQLKSGTASVVCLLNNFYPREAKVQWKVDNALQSGNSQESVTEQDSKDSTYSLSSTLTLSKADYEKHKVYACEVTHQGLSSPVTKSFNRGEC
heavy: not shown
B2: PC-5 + MTSP1 (bispecific antibody)
light: B1 light
chain: not shown
modifications: Protease-treated product: both masks and the anti-albumin domain are cut off in the cleavable linkers.
notes: not shown: The few linker residues left at the N-terminus of each chain after the MTSP1 cut
B3: TCE-22 (anti-CD3 scFv W112A; anti-TROP2 wt) (bispecific antibody)
light: B1 light
heavy: not shown
notes: scFv on the Fab heavy chain; also called TCE-22 (W112A)
B4: TCE-21 (anti-CD3 scFv Y111A; anti-TROP2 wt) (bispecific antibody)
light: B1 light
heavy: not shown
notes: scFv on the Fab heavy chain; also called TCE-21 (Y111A)
B5: TCE-27 (anti-CD3 scFv Y234A; anti-TROP2 wt) (bispecific antibody)
light: B1 light
heavy: not shown
notes: scFv on the Fab heavy chain
B6: TCE-10 (anti-CD3 scFv R100A; anti-TROP2 wt) (bispecific antibody)
light: B1 light
heavy: not shown
notes: scFv on the Fab heavy chain; also called TCE-10 (R100A)
B7: TCE-31 (anti-CD3 scFv W238A; anti-TROP2 wt) (bispecific antibody)
light: B1 light
heavy: not shown
notes: scFv on the Fab heavy chain; also called TCE-31 (W238A)
B8: Peptide-70 (peptide)
peptide: YLCGPDGDETLACY
modifications: cysteine pairing not given here; also: biotinylated, site not given here
notes: mask peptide for the CD3 scFv

One assay addresses T1, Human TROP2 Full length. In words: cell-based or functional assay.
Another assay addresses T2, Cyno TROP2 Full length. In words: cell-based or functional assay.
The target of assay [1] is T3, Human TROP2 ECD (31-274 AA), …. In words: ELISA on immobilized TROP2; binder pre-treated with MTSP1.
The target of assay [2] is T14, CD3 (biotinylated CD3 antigen) (human, UniProt P07766 23-126, limits assumed, biotinylated (site not stated)).
T14 construct: also called CD3ε; human CD3
In words: ELISA, TCE on captured biotin-CD3.

Assay [3] has as its target T4, Peptide-65. In words: ELISA, TCE on captured biotin-peptide.
Assay [4] concerns the target T5, Peptide-66. In words: ELISA, TCE on captured biotin-peptide.
The target of assay [5] is T6, Peptide-67. In words: ELISA, TCE on captured biotin-peptide.
Assay [6] has as its target T7, Peptide-68. In words: ELISA, TCE on captured biotin-peptide.
In the assay “Peptide-70” the target is B8. In words: ELISA, TCE on captured biotin-peptide.
Assay [7] has as its target T8, Peptide-71. In words: ELISA, TCE on captured biotin-peptide.
Assay [8] addresses T9, Peptide-72. In words: ELISA, TCE on captured biotin-peptide.
The target in assay [9] is T10, Peptide-73. In words: ELISA, TCE on captured biotin-peptide.
Assay [10] deals with T11, Peptide-74. In words: ELISA, TCE on captured biotin-peptide.
Assay [11] concerns the target T12, Peptide-75. In words: ELISA, TCE on captured biotin-peptide.
Assay [12] has as its target T13, Peptide-69. In words: ELISA, TCE on captured biotin-peptide.
Assay [13] concerns the target T10, Peptide-73. In words: ELISA, TCE on captured biotin-peptide.
The target in assay [14] is T14, CD3 (biotinylated CD3 antigen). In words: ELISA, TCE on captured biotin-CD3. The source holds these as a separate data set.
Assay [15] deals with T4, Peptide-65. In words: ELISA, TCE on captured biotin-peptide.
Assay [16] deals with T5, Peptide-66. In words: ELISA, TCE on captured biotin-peptide.
For assay [17], the target named is T6, Peptide-67. In words: ELISA, TCE on captured biotin-peptide.
In assay [18] the target is T7, Peptide-68. In words: ELISA, TCE on captured biotin-peptide.
Assay [19] deals with T13, Peptide-69. In words: ELISA, TCE on captured biotin-peptide.
Assay [20] addresses T8, Peptide-71. In words: ELISA, TCE on captured biotin-peptide.
The target of assay [21] is T9, Peptide-72. In words: ELISA, TCE on captured biotin-peptide.
Assay [22] deals with T11, Peptide-74. In words: ELISA, TCE on captured biotin-peptide.
Assay [23] has as its target T12, Peptide-75. In words: ELISA, TCE on captured biotin-peptide.
Assay [24] has as its target T14, CD3 (biotinylated CD3 antigen). In words: ELISA: biotinylated CD3 captured on neutravidin plates, TCE titrated, HRP secondary antibody.
Assay [25] addresses B6. In words: competition ELISA, TCE on captured CD3.
The target of assay [26] is T15, TCE-13 (anti-CD3 scFv N103A; anti-TROP2 wt).
T15 construct: scFv on the Fab heavy chain; also called TCE-13 (N103A)
In words: competition ELISA, TCE on captured CD3.

The target in assay [27] is T16, TCE-14 (anti-CD3 scFv F104A; anti-TROP2 wt).
T16 construct: scFv on the Fab heavy chain; also called TCE-14 (F104A)
In words: competition ELISA, TCE on captured CD3.

The target of assay [28] is T17, TCE-20 (anti-CD3 scFv S110A; anti-TROP2 wt).
T17 construct: scFv on the Fab heavy chain; also called TCE-20 (S110A)
In words: competition ELISA, TCE on captured CD3.

Assay [29] has as its target B3. In words: competition ELISA, TCE on captured CD3.
Assay [30] addresses T18, TCE-26 (anti-CD3 scFv W233A; anti-TROP2 HC wt).
T18 construct: scFv on the Fab heavy chain; also called TCE-26 (W233A)
In words: competition ELISA, TCE on captured CD3.

Assay [31] has as its target B7. In words: competition ELISA, TCE on captured CD3.
Assay [32] concerns the target T19, TCE-36 (anti-CD3 scFv H101A; anti-TROP2 F108A).
T19 construct: scFv on the Fab heavy chain
In words: competition ELISA, TCE on captured CD3.

The target in assay [33] is T20, TCE-38 (anti-CD3 scFv F240A; anti-TROP2 F108A).
T20 construct: scFv on the Fab heavy chain
In words: competition ELISA, TCE on captured CD3.

In assay [34] the target is T21, TCE-1 (anti-CD3 scFv wt; anti-TROP2 Fab wt).
T21 construct: anti-CD3 scFv fused to the N-terminus of the anti-TROP2 Fab heavy chain; also called TCE-1 (wt)
In words: competition ELISA: peptide titrated and pre-incubated with a constant concentration of TCE-1, binding of TCE-1 to plate-bound biotinylated CD3 detected.

Where a chain is given by its changes, count along the chain named. Names may count otherwise. Read-outs that look alike come from different tables or passages of the source. Where no end group is shown, it is not given here.

On to B1, for which the “HCT116 Cytotoxicity EC50 (pM)” value with Human TROP2 Full length came to 83 pM. Moreover, the “CyTROP2 HEK293 EC50 (pM)” value in the assay with Cyno TROP2 Full length came out at 0.1 pM.
On to B2, for which the EC50 in assay [1] was found to be 0.25 nM.
Consider B3, for which the EC50 was determined as 0.95 nM in assay [2]; 220 nM with Peptide-65 [3]; 26.4 nM in the assay with Peptide-66 [4]; 10.5 nM in the assay with Peptide-67 [5]; 794 nM with Peptide-68 [6]; 0.59 nM with Peptide-70. Also, the EC50 with Peptide-71 [7] came to 4.87 nM; in the assay with Peptide-72 [8] it was 11.2 nM; in the assay with Peptide-73 [9] it was 12.2 nM; with Peptide-74 [10] it was 23.4 nM; with Peptide-75 [11], 38.2 nM.
B4: the EC50 is 592 nM in assay [2]; 1080 nM with Peptide-65 [3]; 49.1 nM with Peptide-66 [4]; 77.7 nM with Peptide-67 [5]; 381 nM with Peptide-68 [6]; 572 nM with Peptide-69 [12]. In addition, the EC50 was found to be 11.9 nM with Peptide-70; 106 nM in the assay with Peptide-71 [7]; 76.9 nM in the assay with Peptide-72 [8]; 64.2 nM in the assay with Peptide-74 [10]; 95.6 nM with Peptide-75 [11].
With B5, the EC50 with Peptide-73 [13] was 0.35 nM.
As for B6, the EC50 was determined as 0.35 nM in [14]; 473 nM with Peptide-65 [15]; 0.58 nM with Peptide-66 [16]; 1.76 nM with Peptide-67 [17]; 1.78 nM with Peptide-68 [18]; 8.73 nM with Peptide-69 [19]. The EC50 in the assay with Peptide-71 [20] came to 0.63 nM; in the assay with Peptide-72 [21], 1.85 nM; with Peptide-74 [22], 0.68 nM; in the assay with Peptide-75 [23], 0.76 nM.
In the case of B7, the EC50 is 24 nM in [2]; 6.34 nM with Peptide-66 [4]; 5.96 nM with Peptide-67 [5]; 2.29 nM with Peptide-68 [6]; 0.29 nM with Peptide-69 [12]; 8 nM with Peptide-70. Also, the EC50 with Peptide-71 [7] is 112 nM; with Peptide-72 [8] it was 5.66 nM; with Peptide-74 [10], 5.33 nM; with Peptide-75 [11], 7.08 nM; with Peptide-73 [13], 7.03 nM; in [24] it was 8.65 nM.
Consider B8, for which the IC50 in assay [25] came to 240 nM; in [26] it was 2110 nM; in assay [27] it was 180 nM; in assay [28], 370 nM; in assay [29], 470 nM; in [30] it was 5000 nM. In addition, the figures for the IC50 in [31], in assay [32] and in [33] were 43500 nM, 80 nM and 140 nM, respectively. In addition, the “IC50 (read off the curve)” value in [34] was about 10 nM.

Source of the values: patent publication US20230357429A1 (JANUX THERAPEUTICS, published 2023).
